In patent publication US10682419B2, “Prodrugs of peptide epoxy ketone protease inhibitors” (Onyx Therapeutics, Inc., priority 2012, dated 2020):

Legend:
[1] = Conversion of PEG conjugates to drug in human plasma; assay type: in vitro ADME
[2] = Pharmacokinetic comparison of Compound A and prodrug in mouse; assay type: in vivo

Row | [Cmpd A] (μM) at 1 hr ([2]; time 1 hr) | [Cmpd A] (μM) at 4 hr ([2]; time 4 hr, BLOQ = below level of quantitation) | [Cmpd A] (μM) at 6 hr ([2]; time 6 hr, BLOQ = below level of quantitation) | [Cmpd A] (μM) at 24 hr ([2]; time 24 hr, BLOQ = below level of quantitation) | Structure (SMILES) | Conversion to drug in Human Plasma (%) 2 min [1] | Conversion to drug in Human Plasma (%) 30 min [1] | Conversion to drug in Human Plasma (%) 1 hr [1] | Conversion to drug in Human Plasma (%) 2 hr [1] | Conversion to drug in Human Plasma (%) 4 hr [1]
1 | – | – | – | – | COCCOCCOCCOCCOCCOCCOCCOCCn1cc(CNC(=O)c2cccc(S(=O)(=O)OCC(C)(O)C(=O)[C@H](CC(C)C)NC(=O)[C@H](Cc3ccccc3)NC(=O)[C@H](CC(C)C)NC(=O)[C@H](CCc3ccccc3)NC(=O)CN3CCOCC3)c2)nn1 (some centres unmarked) | 7% | 63% | 100% | 95% | 80%
2 | 0.008 µM | BLOQ | BLOQ | BLOQ | CC(C)C[C@H](NC(=O)[C@H](CCc1ccccc1)NC(=O)CN1CCOCC1)C(=O)N[C@@H](Cc1ccccc1)C(=O)N[C@@H](CC(C)C)C(=O)[C@@]1(C)CO1 [Cmpd A, (S)-4-methyl-N—((S)-1-(((S)-4-methyl-1-((R)-2-methyloxiran-2-yl)-1-oxopentan-2-yl)amino)-1-oxo-3-phenylpropan-2-yl)-2-((S)-2-(2-morpholinoacetamido)-4-phenylbutanamido)pentanamide] | – | – | – | – | –
3 | – | – | – | – | COCCOCCOCCOCCOCCOCCOCCOCCn1cc(COCCCS(=O)(=O)OCC(C)(O)C(=O)[C@H](CC(C)C)NC(=O)[C@H](Cc2ccccc2)NC(=O)[C@H](CC(C)C)NC(=O)[C@H](CCc2ccccc2)NC(=O)CN2CCOCC2)nn1 (some centres unmarked) | 2% | 18% | 58% | 90% | 80%
